In patent US10106582B2, “Complex-formation-modulating agents and uses therefor” (Factor Therapeutics Limited, priority 2012, dated 2018):
Where no end group is shown, it is not given here.

Experiments:
[1] = biological target: T1, IGFBP-3 (Homo sapiens, UniProt P17936); experiment: VN-peptide array: binding of IGFBP-3 to immobilized overlapping 16-mer VN peptides; conditions: relative spot intensity on VN-peptide array after IGFBP-3 incubation, vs average intensity of negative controls (TotalLab)
T1 construct: purchased GroPep
Excerpt: (§1) The inventors designed small-molecule VN-peptides that could potentially disrupt the formation of the IGF-I:IGFBP:VN trimeric or the IGF-II:VN dimeric complexes by binding to the IGFBPs and/or IGF-II and preventing their association with VN within the complex. To design peptides, the binding sites of IGFBP-3/-5 and IGF-II on VN were first determined using VN-peptide arrays. The entire VN protein sequence, excluding the signal peptide (residues 1-19), was divided into overlapping 16-mer peptides with 3AA frameshift/offset (for peptide sequences refer to Table 6) and immobilized onto cellulose membranes (peptide spotting was outsourced to PepMetric Technologies Inc). For a schematic of the arrangement of VN peptides and controls refer to FIG. 2. The resultant peptide arrays were incubated either with IGFBP-3, IGFBP-5 or IGF-II ligands, probed with the respective antibodies, the membranes developed using ECL, and imaged using the ChemiDoc™ XRS system (BioRad). The spots on the membrane were analysed using TotalLab array quantification software (TotalLab Ltd, Newcastle, England) identifying positive peptide spots by comparing each spot to the combined intensities of the negative controls.
(§2) The entire VN protein sequence, excluding the signal peptide (residues 1-19), was divided into overlapping 16-mer peptides with 3 amino acid (AA) frameshift/offset. This yielded 148 overlapping peptides covering the entire VN sequence (residues 20-478) (Table 6) with a resolution of 3 AA. Peptide synthesis and spotting onto a cellulose membrane were outsourced to PepMetric Technologies Inc. (Richmond, BC, Canada). For a diagrammatic illustration of the strategy used to divide an example amino acid sequence into peptides and to spot them onto the membrane, please refer to http://www.pepmetric.com/html/Pep-Overlap.html. The VN-overlapping peptides were generated using FMOC (9-fluorenylmethoxycarbonyl) Solid-Phase SPOT synthesis onto PEG-grafted amine-functionalized cellulose membrane (Whatman® 540 filter paper). The peptides were spotted onto the cellulose membrane in a 10×16 grid with each peptide being 10˜50 nM in concentration with >70% purity. Finally, these membranes were acetylated in order to cap the free ends of the spotted peptides preventing them from degradation during shipping and storage.
(§3) Along with the VN-peptides these membranes were also spotted with a positive control (i.e., universal binding peptides tested by the manufacturer to be positive for antibodies from goat, mouse, rat and chicken) and a negative control (ie. non-binding peptides as well as BSA) controls. For a schematic of the arrangement of VN-peptides and controls refer to FIG. 2 and for the sequence of each peptide corresponding to the grid number refer to Table 6. Four such replicate membranes were prepared and stored at room temperature in a clip sealed plastic bag. Long-term storage was at −20° C.
(§4) Methanol or ethanol was used to enhance the rehydration of peptide spots that might be hydrophobic. The peptides spotted onto the membranes were activated by incubating in 3 mL of 70% ethanol for five mins. The membranes were subsequently washed three times, 10 minutes each, in 10 mL TBS (Tris Buffered Saline; 8 g NaCl, 0.2 g KCl and 6.1 g Tris Base into 1000 mL of milliQ water, pH 7) with gentle rocking. Membrane blocking was performed by incubating in 10 mL casein-based membrane blocking buffer (MBS; Sigma-Aldrich) overnight at 4° C. The following day, the membranes were washed twice, 10 minutes each, in 10 mL TBS-T (TBS+0.05% Tween-20; pH 7).
(§5) Ligands used to test binding to VN-peptides were IGFBP-3, IGFBP-5 and IGF-II. For ligand binding, four separate solutions of 1 μg/mL ligand in 10 mL MBS buffer were prepared and each membrane was incubated in one of the four ligand solutions overnight at 4° C., with gentle rocking. […] The following day, the membranes were washed three times, 10 minutes each, in 10 mL TBS-T. […]

[2] = biological target: T2, IGF-II (Homo sapiens, UniProt P01344); experiment: VN-peptide array: binding of IGF-II to immobilized overlapping 16-mer VN peptides; conditions: relative spot intensity on VN-peptide array after IGF-II incubation, vs average intensity of negative controls (TotalLab)
T2 construct: purchased GroPep
Excerpt: as §1, §2, §3, §4, §5

T1 sequence (P17936 28-291): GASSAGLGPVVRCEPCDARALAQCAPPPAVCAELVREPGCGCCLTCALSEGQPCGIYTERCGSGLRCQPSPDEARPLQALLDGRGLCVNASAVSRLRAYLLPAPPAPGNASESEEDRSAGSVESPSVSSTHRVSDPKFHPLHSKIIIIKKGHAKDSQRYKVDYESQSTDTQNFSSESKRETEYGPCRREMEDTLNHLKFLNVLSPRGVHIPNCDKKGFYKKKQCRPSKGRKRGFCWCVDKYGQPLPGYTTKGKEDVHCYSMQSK
T2 sequence (P01344 25-91 limits assumed): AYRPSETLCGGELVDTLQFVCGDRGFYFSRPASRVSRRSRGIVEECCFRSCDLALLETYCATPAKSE

Sequence | Intensity (against −ve control), BP3 [1] | Intensity (against −ve control), IGFII [2]
DSWEDIFELLFWGRTS (not fully specified (N-terminus)) [Peptide 5D] | 2.5-BP3 fold-change | –
FAMMQRDSWEDIFELL (not fully specified (N-terminus)) [Peptide 5B] | 4.5-BP3 fold-change | –
MQRDSWEDIFELLFWG (not fully specified (N-terminus)) [Peptide 5C] | 4.5-BP3 fold-change | –
QYWEYQFQHQPSQEEC (not fully specified (N-terminus)) [Peptide 4B] | 12-BP3 fold-change | –
FEHFAMMQRDSWEDIF (not fully specified (N-terminus)) [Peptide 5A] | 1.5-BP3 fold-change | –
KGKQYWEYQFQHQPSQ (not fully specified (N-terminus)) [Peptide 4A] | 6-BP3 fold-change | –
DELCSYYQSCCTDYTA (not fully specified (N-terminus); cysteine pairing not given here) [Peptide 1B] | – | 12-IGFII fold-change

Further lines, results first:

Intensity (against −ve control), BP3 [1] | Intensity (against −ve control), IGFII [2] | Sequence
– | 12-IGF-II fold-change | SNLGANNYDDYRMDWL (not fully specified (N-terminus)) [Peptide 7C]
– | 17-IGF-II fold-change | LFSSEESNLGANNYDD (not fully specified (N-terminus)) [Peptide 7A]
– | 18-IGF-II fold-change | SEESNLGANNYDDYRM (not fully specified (N-terminus)) [Peptide 7B]
– | 1.5-IGFII fold-change | TRQPQFISRDWHGVPG (not fully specified (N-terminus)) [Peptide 6C]
